Source: publication PMC5170609 (Molecular Biology of the Cell, 2016)

What was measured:
Test in all cases: ELISA
[1] = molecular target: wild-type full-length desmin (recombinant) (UniProt P17661 1-470)
[2] = molecular target: desmin E245D (recombinant, desminopathy-linked mutant) (UniProt P17661 1-470, E245D)
[3] = molecular target: desmin T453I (recombinant, desminopathy-linked mutant) (UniProt P17661 1-470, T453I)
Sequence of desmin T453I (recombinant, desminopathy-linked mutant) (P17661 whole entry T453I): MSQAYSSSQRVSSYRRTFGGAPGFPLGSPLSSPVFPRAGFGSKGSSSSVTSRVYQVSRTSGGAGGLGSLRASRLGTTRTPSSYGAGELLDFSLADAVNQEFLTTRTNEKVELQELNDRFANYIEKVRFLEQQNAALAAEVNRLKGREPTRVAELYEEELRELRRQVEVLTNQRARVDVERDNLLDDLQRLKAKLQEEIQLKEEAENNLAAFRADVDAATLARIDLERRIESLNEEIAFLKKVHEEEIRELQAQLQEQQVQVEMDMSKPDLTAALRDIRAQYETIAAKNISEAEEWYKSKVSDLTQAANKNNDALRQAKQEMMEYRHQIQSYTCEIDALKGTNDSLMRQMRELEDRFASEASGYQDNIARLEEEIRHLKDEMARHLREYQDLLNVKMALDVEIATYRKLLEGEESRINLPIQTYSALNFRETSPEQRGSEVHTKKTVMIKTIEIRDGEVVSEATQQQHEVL

Sequence of wild-type full-length desmin (recombinant) (P17661 whole entry): as the sequence (P17661 whole entry T453I) above, with I453T counted along it
Sequence of desmin E245D (recombinant, desminopathy-linked mutant) (P17661 whole entry E245D): as the sequence (P17661 whole entry T453I) above, with E245D, I453T counted along it

Kd [1]: 16 to 24 nM
Kd [2]: 5 to 6 nM
Kd [3]: 3 nM
B1: His-nebulette modules 1–5 (recombinant) (domain or fragment, UniProt O76041 32-213, looked up)
chain: PVIEDLSMELARKCTELISDIRYKEEFKKSKDKCTFVTDSPMLNHVKNIGAFISEAKYKGTIKADLSNSLYKRMPATIDSVFAGEVTQLQSEVAYKQKHDAAKGFSDYAHMKEPPEVKHAMEVNKHQSNISYRKDVQDTHTYSAELDRPDIKMATQISKIISNAEYKKGQGIMNKEPAVIGR
